“Also recorded” adds a separate entry of the source.
Legend:
[1] = system: S. aureus (strains Pig1 and LAC); assay: Effect of zinc on growth and viability of S. aureus; type: cell-based, Staphylococcus aureus; conditions: 100 μM Zn2SO4, RPMI 1640 with 10% FBS, 24 h
Description: To assess whether zinc, at the concentrations used in the inventors' study, adversely affect the growth and viability of S. aureus (strains Pig1 and LAC), bacteria (˜5×10^5 CFU) were incubated with or without 100 μM zinc (Zn2 SO4) in RPMI 1640 with 10% FBS. The assay was performed in triplicate in 96-well plates for 24 h at 37° C. at which time ten-fold serial dilutions were plated on THA for enumeration of CFU.

S. aureus [2] = assay: Murine skin (s.c.) S. aureus infection with IFN-γ treatment; type: in vivo, mouse; conditions: C/EBPε−/− mice, 5,000 U i.p. daily
Description: S. aureus was pelleted, washed twice and resuspended in PBS (Mediatech, Manassas, Va., USA) mixed 1:1 with sterile Cytodex beads (GE Healthcare, Pasadena, Calif., USA) at the specified inoculum, following an established protocol for generating localized S. aureus and S. pyogenes subcutaneous (s.c.) infection^41,42. One hundred microliters of two separate inocula, as specified, were administered by s.c. injection into the respective two flanks of each mouse. Injections were performed with careful visualization of the needle to assure that they were not intramuscular. Serial dilutions were prepared and plated to confirm the actual inocula used.
Baseline weights of mice were recorded prior to infection and daily thereafter until sacrifice. Lesions were measured with a caliper, daily throughout infection. Lesions were defined by darkened areas of dermonecrosis. The inventors' method to measure lesion size has been previously reported^43. Briefly, skin lesions were quantified by multiplying the length and width of the lesion. Irregularly-shaped lesions were broken down into smaller symmetrical pieces, and each piece was measured by the same method.
Following euthanization of mice on the specified day, infected skin lesion tissue was aseptically excised, and thoroughly homogenized and mixed in 1 mL of PBS as previously shown^43. Ten-fold serial dilutions of the homogenates were plated on THA for CFU determination. The spleen and both kidneys were aseptically removed from each animal and processed in the same way. When required, the appropriate homogenized suspensions (skin lesions) were centrifuged at 15,000 g for 10 min and supernatants stored at −80° C. for subsequent analysis by ELISA.
Mice were infected with S. aureus by s.c. injection as already described. One hundred microliters of two separate specified inocula were injected into the respective two flanks of WT and C/EBPε^−/− mice.
C/EBPε^−/− mice were treated with recombinant murine IFN-γ (Shenandoah Biotechnology, Warwick, Pa., USA) 48 h prior to infection. IFN-γ was administered i.p. (0.5 mL in PBS) at a dose of 5,000 U. Control WT and C/EBPε^−/− mice received equal amounts of PBS. The respective mice continued to receive IFN-γ or PBS every 24 h until they were euthanized.
Mouse weight and lesion size were recorded daily as already described. At day 4 p.i., mice were euthanized, and the CFU from skin lesions, spleen, and kidneys were determined.

S. aureus [3] = assay: S. aureus survival assay in BMDM treated with IFN-γ; type: cell-based, mouse; conditions: C/EBPε−/− BMDM, IFN-γ 48 h before infection, 24 h
Description: Macrophages were infected with S. aureus at the specified MOI. […] After 30 min, macrophages were washed three times with pre-warmed media to remove extracellular bacteria. Gentamicin (Invitrogen, Carlsbad, Calif., USA) was then added to each well at a final concentration of 400 μg/mL for 1.5 h. At this time, the concentration of gentamicin in the media was reduced to 100 μg/mL for the remainder of the assay. At 24 h post infection, cells were washed three times with PBS, then 100 μl of 0.02% Triton X-100 in water was added to each well and pipetted vigorously 10× to promote macrophage lysis and release intracellular bacteria. Ten-fold serial dilutions of each cell lysate were immediately plated onto THA, and CFU were enumerated following overnight incubation at 37° C. Data are representative of at least two independent experiments performed in triplicate.
BMDM harvested from WT and C/EBPε^−/− mice were seeded at the required density of 5×10^4 cells per well (100 μl) in 96-well tissue culture plates. Macrophages were then activated with IFN-γ (200 U/mL) for 48 h prior to infection. Activated and control non-activated macrophages were infected with S. aureus at the specified MOI. The macrophage survival assay was then performed as described for U937 macrophages.

Molecule	effect on viability and growth of S. aureus [1]	effect on viability and growth of S. aureus ([1]; listed as Zinc)	CFU in skin lesions, spleen and kidneys vs PBS (S. aureus [2])	area of dermonecrosis (S. aureus [2])	changes in body weight vs PBS-treated WT control (S. aureus [2])	overall lesion size / area vs PBS (S. aureus [2])	S. aureus CFU recovered from / killing by macrophages (S. aureus [3])
O=S(=O)([O-])[O-].[Zn+2] [zinc]	no effect; also recorded: does not have direct anti-staphylococcal activity	no effect					
IFN-γ: recombinant murine IFN-γ (Shenandoah Biotechnology) (protein, UniProt P01580 23-155, looked up) Interferon gamma: HGTVIESLESLNNYFNSSGIDVEEKSLFLDIWRNWQKDGDMKILQSQIISFYLRLFEVLKDNQAISNNISVIESHLITTFFSNSKAKKDAFMSIAKFEVNNPQVQRQAFNELIRVVHQLLPESSLRKRKRSRC			lower numbers of bacteria in the skin lesions; also recorded: significantly lower CFU	dramatically ameliorated	similar	no effect on the overall lesion area; also recorded: no effect on overall lesion size	reduced the number of S. aureus CFU; also recorded: improved killing of S. aureus

Source: patent US20130052162A1, “BOOSTING IMMUNE DEFENSE BY UPREGULATING CCAAT/ENHANCER BINDING PROTEIN EPSILON” (CEDARS-SINAI MEDICAL CENTER, priority 2010, published 2013)
